Results as given in US20230151091A1 (NEW YORK UNIVERSITY, published 2023).
Positions count from the first letter of the chain named.

Assays:
mouse MuSK [1] = target: T1, mouse MuSK (mouse, UniProt Q61006 22-494, limits assumed); experiment: Biacore T200, MuSK on chip (200RU), 22.2 nM Fab, dissociation pH 7.4
T1 construct: Coated on ELISA plates or on the Biacore chip; also called full length mouse MuSK; mouse MuSK (in house produced in HEK293 cells)
T1 sequence (looked up): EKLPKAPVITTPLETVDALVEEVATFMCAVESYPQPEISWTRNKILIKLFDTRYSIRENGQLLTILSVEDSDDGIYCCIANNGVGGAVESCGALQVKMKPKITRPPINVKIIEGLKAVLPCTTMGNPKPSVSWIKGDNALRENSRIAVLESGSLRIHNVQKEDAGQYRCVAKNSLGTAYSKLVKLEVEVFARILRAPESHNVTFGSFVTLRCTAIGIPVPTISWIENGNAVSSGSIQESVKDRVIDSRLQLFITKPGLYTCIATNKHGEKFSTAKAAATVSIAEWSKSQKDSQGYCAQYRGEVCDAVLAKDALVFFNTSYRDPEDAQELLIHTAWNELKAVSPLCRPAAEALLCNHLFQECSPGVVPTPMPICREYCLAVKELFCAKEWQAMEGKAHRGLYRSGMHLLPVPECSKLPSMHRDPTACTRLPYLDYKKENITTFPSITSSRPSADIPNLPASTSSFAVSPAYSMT
Procedure: (§1) In order to study pH dependent binding of the antibodies described herein to MuSK, a Biacore T200 was used. Briefly, a CMS chip was coated with human and mouse MuSK (200RU) and 22.2 nM of Fab was applied and kinetic parameters calculated. Association was done at pH7.4, dissociation was done at pH 7.4 and also at pH 5.5. The following Fabs were tested, X2, X2m4, X3, X9, X17, 3B2 and 3B2g2m1 (Table 10 and FIG. 23). […] Binding affinity at pH 5.5 is very low, resulting in a rapid dissociation at endosomal pH allowing 3B2g2m1 to recycle.

human MuSK [2] = target: T2, human MuSK (human, UniProt O15146 24-495); experiment: as above
T2 construct: Recombinant protein coated on ELISA plates (R&D Systems cat. 10189-MK) or on the Biacore chip; also called human muscle-specific tyrosine protein kinase; full length human MuSK
T2 sequence: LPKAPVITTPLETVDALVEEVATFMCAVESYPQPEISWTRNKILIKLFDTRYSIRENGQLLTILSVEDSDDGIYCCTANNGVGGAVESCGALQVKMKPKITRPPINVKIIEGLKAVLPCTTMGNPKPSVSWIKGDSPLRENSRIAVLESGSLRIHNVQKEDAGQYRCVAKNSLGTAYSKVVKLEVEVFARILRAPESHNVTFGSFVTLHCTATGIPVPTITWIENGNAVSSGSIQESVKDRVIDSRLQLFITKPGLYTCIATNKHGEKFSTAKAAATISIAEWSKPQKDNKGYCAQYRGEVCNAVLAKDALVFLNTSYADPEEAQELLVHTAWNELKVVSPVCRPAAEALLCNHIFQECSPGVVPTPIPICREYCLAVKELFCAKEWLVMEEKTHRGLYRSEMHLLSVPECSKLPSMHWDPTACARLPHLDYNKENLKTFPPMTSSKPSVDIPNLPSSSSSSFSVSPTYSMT
Procedure: as §1

[3] = target: T3, hFz: Fz domain and C-terminal flanking sequence of human MuSK (K314-T495) with C-terminal Avi- and His6-tags (human, UniProt O15146 314-495, biotinylated in vitro using the BirA enzyme); experiment: bead-binding assay, Fab format: biotinylated antigen on streptavidin beads, flow cytometry, 1:1 fit; average ± s.d., n=3
T3 construct: also called human Fz; not shown: Avi- and His6-tags
T3 sequence: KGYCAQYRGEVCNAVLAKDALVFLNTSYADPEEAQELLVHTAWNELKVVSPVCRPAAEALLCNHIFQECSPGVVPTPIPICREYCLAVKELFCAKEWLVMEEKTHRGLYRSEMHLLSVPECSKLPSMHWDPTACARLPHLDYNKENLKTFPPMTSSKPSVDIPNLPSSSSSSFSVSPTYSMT

[4] = target: T4, mFz: Fz domain and C-terminal flanking sequence of mouse MuSK (D307 to T494) with C-terminal Avi- and … (mouse, UniProt Q61006 307-494, limits assumed, biotinylated in vitro using the BirA enzyme); experiment: as above
T4 construct: also called mouse Fz; not shown: Avi- and His6-tags
T4 sequence (looked up): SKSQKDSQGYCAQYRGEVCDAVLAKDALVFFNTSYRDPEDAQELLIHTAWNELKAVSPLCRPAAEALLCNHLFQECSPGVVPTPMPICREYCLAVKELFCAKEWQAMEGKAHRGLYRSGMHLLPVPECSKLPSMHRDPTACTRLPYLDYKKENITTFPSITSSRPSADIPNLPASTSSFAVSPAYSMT

[5] = target: T5, mECD: full-length extracellular region of mouse MuSK (E22 to T494) with C-terminal Avi- and His6-tags (mouse, UniProt Q61006 22-494, biotinylated in vitro using the BirA enzyme); experiment: as above
T5 construct: range 22-494; also called mouse ECD; not shown: Avi- and His6-tags
T5 sequence (looked up): T1 sequence (looked up)

[6] = target: T6, hECD: full-length extracellular region of human MuSK (E22 to T495) with C-terminal Avi- and His6-tags (human, UniProt O15146 22-495, biotinylated in vitro using the BirA enzyme); experiment: as above
T6 construct: also called human ECD; not shown: Avi- and His6-tags
T6 sequence: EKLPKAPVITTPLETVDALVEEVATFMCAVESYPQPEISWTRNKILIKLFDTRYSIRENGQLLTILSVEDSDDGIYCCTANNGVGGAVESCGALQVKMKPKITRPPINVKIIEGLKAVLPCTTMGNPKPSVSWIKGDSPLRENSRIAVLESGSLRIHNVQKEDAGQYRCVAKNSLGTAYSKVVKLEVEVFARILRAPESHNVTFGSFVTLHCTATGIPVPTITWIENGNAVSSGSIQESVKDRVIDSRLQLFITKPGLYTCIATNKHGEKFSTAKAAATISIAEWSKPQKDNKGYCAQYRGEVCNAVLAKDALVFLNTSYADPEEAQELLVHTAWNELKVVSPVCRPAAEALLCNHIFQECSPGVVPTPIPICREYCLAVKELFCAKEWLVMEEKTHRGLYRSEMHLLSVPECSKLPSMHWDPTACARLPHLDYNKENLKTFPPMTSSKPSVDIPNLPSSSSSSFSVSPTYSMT

mouse MuSK [7] = target: T1, mouse MuSK; experiment: Biacore T200, MuSK on chip (200RU), 22.2 nM Fab, dissociation pH 5.5
Procedure: as §1

human MuSK [8] = target: T2, human MuSK; experiment: as above
Procedure: as §1

[9] = target: T3, hFz: Fz domain and C-terminal flanking …; experiment: bead-binding titration, Fab format: antigen immobilized on streptavidin beads, MFI by flow cytometry, curve is the 1:1 fit
[10] = target: T4, mFz: Fz domain and C-terminal flanking …; experiment: as above
mouse MuSK [11] = target: T1, mouse MuSK; experiment: Biacore T200, off rate at pH 5.5 against pH 7.4
Procedure: as §1

human MuSK [12] = target: T2, human MuSK; experiment: Biacore T200, off rate at pH 5.5 against pH 7.4
Procedure: as §1

[13] = target: T4, mFz: Fz domain and C-terminal flanking …; experiment: bead-binding titration, IgG format: antigen immobilized on streptavidin beads, MFI by flow cytometry, curve is the 1:1 fit
[14] = target: T5, mECD: full-length extracellular region …; experiment: as above
[15] = target: T3, hFz: Fz domain and C-terminal flanking …; experiment: bead-binding assay, IgG format: biotinylated antigen on streptavidin beads, flow cytometry, 1:1 fit; average ± s.d., n=3
[16] = target: T4, mFz: Fz domain and C-terminal flanking …; experiment: as above
[17] = target: T5, mECD: full-length extracellular region …; experiment: as above
[18] = target: T6, hECD: full-length extracellular region …; experiment: as above

B1: X17 Fab (Fab, V domains shown)
VH: EVQLVESGGGLVQPGGSLRLSCAASGFTISYSSIHWVRQAPGKGLEWVASIYSSSGSTYYADSVKGRFTISADTSKNTAYLQMNSLRAEDTAVYYCARGDHGYYVFGYLGMDYWGQGTLVTVSS
VL: DIQMTQSPSSLSASVGDRVTITCRASQSVSSAVAWYQQKPGKAPKLLIYSASSLYSGVPSRFSGSRSGTDFTLTISSLQPEDFATYYCQQSYKPGALITFGQGTKVEIK
notes: Fab format
Mouse MuSK [1]
  koff: 0.0012 s⁻¹
Human MuSK [2]
  koff: 0.00088 s⁻¹
[3]
  Kd: 0.38 nM
[4]
  Kd: 0.47 nM
[5]
  Kd: 0.63 nM
[6]
  Kd: 0.52 nM
Mouse MuSK [7]
  koff: 0.002 s⁻¹
Human MuSK [8]
  koff: 0.00678 s⁻¹
[9]
  EC50 (read off the curve): ~0.4 nM
[10]
  EC50 (read off the curve): ~0.3 nM
Mouse MuSK [11]
  Ratio pH 5.5/7.4 of off rate: 1.7
Human MuSK [12]
  Ratio pH 5.5/7.4 of off rate: 7.7

B2: mIgG2a-X3 (antibody, V domains shown)
VH: EVQLVESGGGLVQPGGSLRLSCAASGFTISSSSIHWVRQAPGKGLEWVASISSSSGYTYYADSVKGRFTISADTSKNTAYLQMNSLRAEDTAVYYCARSWYEMWMSGYFGFDYWGQGTLVTVSS
VL: DIQMTQSPSSLSASVGDRVTITCRASQSVSSAVAWYQQKPGKAPKLLIYSASSLYSGVPSRFSGSRSGTDFTLTISSLQPEDFATYYCQQSSSSLITFGQGTKVEIK
notes: mouse IgG2a format; also called X3 in mouse IgG2a format
[13]
  EC50 (read off the curve): ~0.1 nM
[14]
  EC50 (read off the curve): ~0.1 nM
[15]
  Kd: 0.079 nM
[16]
  Kd: 0.096 nM
[17]
  Kd: 0.118 nM
[18]
  Kd: 0.113 nM

B3: hIgG1-X2 (antibody, V domains shown)
VH: EVQLVESGGGLVQPGGSLRLSCAASGFTVSSSSIHWVRQAPGKGLEWVASISSSYGSTSYADSVKGRFTISADTSKNTAYLQMNSLRAEDTAVYYCARSEGDRYVSGYMGMDYWGQGTLVTVSS
VL: B2 VL with S92G, S93V, S94W
notes: human IgG1 Fc containing LALA mutations; also called hIgG-X2; X2 in the human IgG1 format
[13]
  EC50 (read off the curve): ~0.3 nM
[14]
  EC50 (read off the curve): ~0.4 nM
[15]
  Kd: 0.421 nM
[16]
  Kd: 0.265 nM
[17]
  Kd: 0.307 nM
[18]
  Kd: 0.478 nM

B4: hIgG1-X3 (antibody, V domains shown)
VH: B2 VH
VL: B2 VL
notes: human IgG1 Fc containing LALA mutations; also called X3 in human IgG1 format
[13]
  EC50 (read off the curve): ~0.07 nM
[14]
  EC50 (read off the curve): ~0.08 nM
[15]
  Kd: 0.057 nM
[16]
  Kd: 0.07 nM
[17]
  Kd: 0.079 nM
[18]
  Kd: 0.074 nM
